Source: publication PMC12377726 (Proceedings of the National Academy of Sciences of the …, 2025)
Residue numbers refer to the chain shown, from its start.

B1: G001_gp1_V10_VRC01c_2021-0114 (antibody, V domains shown)
VH: QVQLVQSGAEVKKPGASVKVSCKASGYTFTGYNIHWVRQDPGQGLEWMGWINPNSGGTNYAQKFQDWVTMTRDMSISTAYMELSRLRSDDTAIYYCAAVAGRRGRWAFDIWGQGTMVTVSS
VL: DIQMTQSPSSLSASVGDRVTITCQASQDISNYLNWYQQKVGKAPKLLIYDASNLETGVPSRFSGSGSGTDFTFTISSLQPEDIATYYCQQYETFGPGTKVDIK
B2: G001_gp1_V10_VRC01c_2021-0116 (antibody, V domains shown)
VH: QVQLVQSGAEVKKPGASVKVSCKASGYTFTDYYIHWVRQAPGQGLEWMGWINPNSGGTNYAQKFQGRVTMTRDTSITTAYMELSRLRSDDTAVYYCARICSGGSCYRTTSTFDYWGQGTLVTVSS
VL: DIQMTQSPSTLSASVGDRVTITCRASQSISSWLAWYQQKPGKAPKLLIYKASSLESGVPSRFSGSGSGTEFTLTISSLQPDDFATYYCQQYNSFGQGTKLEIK
B3: G001_gp1_V10_VRC01c_2021-0107 (antibody, V domains shown)
VH: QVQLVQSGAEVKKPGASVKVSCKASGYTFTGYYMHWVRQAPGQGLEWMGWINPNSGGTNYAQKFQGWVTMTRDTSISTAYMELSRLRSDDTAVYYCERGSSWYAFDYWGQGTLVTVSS
VL: DIQMTQSPSSLSASVGDRVTITCRASQSISSYLNWYQQKPGKAPKLLIYAASSLQSGVPSRFSGSGSGTDFTLTISSLQPEDFATYYCQHQGTFGQGTKVEIK
B4: G001_gp1_V10_VRC01c_2021-0126 (antibody, V domains shown)
VH: QVQLVQSGAEVKKPGASVKVSCKASESTFTDYYMHWVRQAPGQGLEWMGWMNPNSGGTNYALKFQGRVTMTRDTSISTAYMELSRLRSDDTAVYYCATKRRGTYFDQWGQGTLVTVSS
VL: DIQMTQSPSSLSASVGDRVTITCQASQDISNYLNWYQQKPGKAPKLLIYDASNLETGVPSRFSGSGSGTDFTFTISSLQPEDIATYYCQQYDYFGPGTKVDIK
B5: G001_gp1_V10_VRC01c_2021-0100 (antibody, V domains shown)
VH: PVQLVQSGAEVKKPGASVKVSCKASGYTFTGYYIHWVRQAPGQGLEWMGWINPNSGGTNYAQKFQGRVTMTRDTSVSTAYMELSRLRSDDTAVYYCARRLAAASGVFGVRFDPWGQGTLVTVSS
VL: DIQMTQSPSSLSASVGDRITITCQASQDISNYLNWYQQRPGKAPKLLIYDASNLETGVPSRFSGSGSGTDFTFTISSLQPEDIATYYCQQYDFFGPGTKVDIK
B6: G001_gp1_V10_VRC01c_2021-0128 (antibody, V domains shown)
VH: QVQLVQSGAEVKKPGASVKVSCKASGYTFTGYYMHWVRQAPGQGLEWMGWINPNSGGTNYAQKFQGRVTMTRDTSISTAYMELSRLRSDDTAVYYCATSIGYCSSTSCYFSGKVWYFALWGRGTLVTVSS
VL: B5 VL with I19V, R39K, K45N, S76T, D92E, F93T, P96Q, K99N, V100L, D101E
B7: G001_gp1_V10_VRC01c_2021-0122 (antibody, V domains shown)
VH: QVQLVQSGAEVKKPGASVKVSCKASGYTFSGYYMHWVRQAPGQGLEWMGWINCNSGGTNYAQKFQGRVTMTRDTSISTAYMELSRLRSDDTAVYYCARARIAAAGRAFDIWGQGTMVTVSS
VL: B5 VL with I19V, R39K, D92G, F93T, P96Q, V100L, D101E
B8: G001_gp1_V10_VRC01c_2021-0109 (antibody, V domains shown)
VH: QVQLVQSGAEVKKPGASVKVSCKASGYSFTGYYMHWVRQAPGQGLEWMGWMNPNSGGTNYAQKFQGWVTMTRDTSISTAYMELSRLRSDDSAVYYCARARSGYSSGWYWAYWGQGTLVTVSS
VL: B5 VL with I19V, R39K, D92E, P96G, D101E
B9: G001_gp1_V10_VRC01c_2021-0130 (antibody, V domains shown)
VH: QVQLVQSGAEVKKPGASVKVSCKASGYTFTGYYMHWVRQAPGQGLEWMGWINPKSGGTNYAQKFQDWVTMTRDTSISTAYMELSRLRSDDTAVYYCARARVEPGSSWLWGYWGQGTLVTVSS
VL: B5 VL with I19V, R39K, A51V, D92E, F93T, P96G, D101E
B10: G001_gp1_V10_VRC01c_2021-0127 (antibody, V domains shown)
VH: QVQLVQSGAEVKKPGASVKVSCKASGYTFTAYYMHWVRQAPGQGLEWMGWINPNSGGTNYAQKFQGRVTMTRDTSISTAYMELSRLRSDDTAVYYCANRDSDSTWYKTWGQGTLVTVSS
VL: B5 VL with I19V, S30T, Y32H, R39K, R61S, I83V, D92V, F93T, P96G, D101E
B11: G001_gp1_V10_VRC01c_2021-0119 (antibody, V domains shown)
VH: QVQLVQSGAEVKRPGASVMVSCKASGYTFTNYYMHWVRQAPGQGLEWMGWINPSSGGTNYAQKFQDWVTMTRDTSISTVYMELNRLRFDDTAVYFCARAQSSGWFLDFWGQGTLVTVSS
VL: DIQMTQSPSSLSASVGDRVTITCQASQGFTKYLNWYQQKLGKAPKLLIYDASNLETGVPSRFSGSASGTDFTFTISSLQPEDIATYYCQQYDLFGGGTKVEIR
B12: G001_gp1_V10_VRC01c_2021-0101 (antibody, V domains shown)
VH: QVHLVQSGAEVKKPGASVKVSCKASGYTFTGYSMHWVRQAPGQGLEWMGWINPNSGGTNYAQKFQGRVTMTRDTSINTGYMELSRLRSDDTAVYYCARPHSNWYFDLWGRGTLVTVSS
VL: EIVLTQSPGTLSLSPGERATLSCRASQSVSSNYLAWYQQKPGQAPRLLIYGASSRATGIPDRFSGSGSGTDFTLTISRLEPEDFAVYYCQQYETFGQGTKVEIK
B13: G001_gp1_V10_VRC01c_2021-0104 (antibody, V domains shown)
VH: QVHLVQSGAEVKKPGASVKVSCKASGYSFTDYYIYWVRQAPGQGLEWMGWINPNSGGTNYAQKFQAWVTMTRDTSISTAYMELNRLTSDDTAVYYCARRTMPTTEFDSWGQGTLVTVSS
VL: B12 VL with A19V, V29L, S31N, A52V, S54N, S64R, F84C, E93V, T94S, V101L
B14: G001_gp1_V10_VRC01c_2021-0112 (antibody, V domains shown)
VH: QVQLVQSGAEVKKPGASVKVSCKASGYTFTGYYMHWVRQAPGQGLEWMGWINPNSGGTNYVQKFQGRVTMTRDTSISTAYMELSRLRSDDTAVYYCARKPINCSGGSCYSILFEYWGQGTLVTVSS
VL: B12 VL with R24W, S30N, N32R, L34V, K100R, V101L
B15: G001_gp1_V10_VRC01c_2021-0108 (antibody, V domains shown)
VH: QVQLVQSGAEVKKPGASVKISCKASGYTFSGYYMHWVRQAPGQGLEWMGWINPNSGGTNYAQKFQDWVTMTRDTSISTVYMELSRLRSDDTAVYYCARDWCSGDTCYSGPTFDYWGQGTLVTVSS
VL: B12 VL with I2S
B16: G001_gp1_V10_VRC01c_2021-0110 (antibody, V domains shown)
VH: QVQLVQSGAEVKKPGASVRVSCKASGYTFTGYYMHWVRQAPGQGLEWMGWTNPNSGGTNYAQKFQGWVTMTRDTSISTAYMELSRLRSDDTAVYYCARGEAYSTRYFDLWGRGTLVTVSS
VL: B12 VL with N32S, G51D, A52T
B17: G001_gp1_V10_VRC01c_2021-0106 (antibody, V domains shown)
VH: QVQLVQSGAEVKKPGASVKVSCKASGYTFTDYYIHWVRQAPGQGLEWMGWLNPNSGGTNYAQKFQDWVTMTRDTSINTAYMELSRLRSDDTAVYYCASSLSGYGSFSFDYWGQGTLVTVSS
VL: B12 VL with V29G, N32R, Y33S, S77N, F84S, E93D, T94S, V101L
B18: G001_gp1_V10_VRC01c_2021-0115 (antibody, V domains shown)
VH: QVQLVQSGAEVKKPGASVKVSCNASGYTFTGYYMHWVRQAPGQGLEWMGWINPNSGGTNFAQKFQGWVTMTRDTSISTAYMELSRLRSDDTAVYYCARSIVGATIFVYWGQGTLVTVSS
VL: B12 VL with V29L, N32S, E93G, T94A, Q97P, E102D
B19: G001_gp1_V10_VRC01c_2021-0121 (antibody, V domains shown)
VH: QVQLVQSGAEVKKPGASVKVSCKASGYSFTGYYIHWVRQVPGQGLEWMGWINPNSGGTNYAQEFQDWVTMTRDTSISTAYMELSRLRSDDTAVYYCARHKPSSRFYFDYWGQGTLVTVSS
VL: DIQMTQSPSTLSASVGDRVTITCRASQSISSWLAWYQQKPGKAPKFLLMYDASSLESGVPSRFSGSGSGTEFTLTISSLQPDDFATYYCQQYETFGQGTKVEIK
B20: G001_gp1_V10_VRC01c_2021-0124 (antibody, V domains shown)
VH: QVQLVQSGAEVKKPGASVKVSCKASGYTFTGYYMHWVRQAPGQGLEWMGWINPNSGGTNYARKFQGWVTMTRDTSIGTAYMELSRLRSDDTAVYYCAKSRSRDDTWLFDYWGQGTLVTVSS
VL: DIVMTQSPDSLAVSLGERATINCKSSRSVLYSSNNKNFLTWYQQKPGQPPKLLIYWASTRESGVPERFSGSGSGTDFTLTISSLQAEDVAVYYCQQYESFGQGTKLEIK
B21: G001_gp1_V10_VRC01c_2021-0105 (antibody, V domains shown)
VH: QVQLVQSGAEVKKPGASVKVSCKASGYTFTGYYIHWVRQAPGQGLEWMGWINPNSGGTNYARQFEGWVTMTRDTSISTAYMELRRLRSDDTAMYYCATEDAVVAGTTFDYWGQGTLVTVSS
VL: DIQMTQSPSTLSASVGDRVTITCRASQSMSSWLAWYQQKPGKAPKLLIYKASSLQSGVPSRFSGSGSGTEFTLTISSLQPDDFATYYCQQYNSFGGGTKVEIK
B22: G001_gp1_V10_VRC01c_2021-0111 (antibody, V domains shown)
VH: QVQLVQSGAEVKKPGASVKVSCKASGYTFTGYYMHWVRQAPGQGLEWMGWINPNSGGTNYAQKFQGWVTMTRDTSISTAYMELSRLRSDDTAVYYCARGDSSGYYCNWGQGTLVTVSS
VL: B21 VL with M29I, Q55E, N92T, S93T
B23: G001_gp1_V10_VRC01c_2021-0123 (antibody, V domains shown)
VH: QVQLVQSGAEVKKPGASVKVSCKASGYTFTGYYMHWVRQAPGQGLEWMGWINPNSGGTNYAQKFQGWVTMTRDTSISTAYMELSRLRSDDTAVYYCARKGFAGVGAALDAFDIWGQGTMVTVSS
VL: B21 VL with M29I, Q55E, S93T, G96Q
B24: G001_gp1_V10_VRC01c_2021-0103 (antibody, V domains shown)
VH: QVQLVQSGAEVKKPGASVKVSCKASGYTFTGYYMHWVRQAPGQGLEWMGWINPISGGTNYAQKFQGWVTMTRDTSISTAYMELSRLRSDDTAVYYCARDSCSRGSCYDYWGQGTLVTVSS
VL: QSALTQPRSVSGSPGQSVTISCTGTSSDVGGYNYVSWYQQHPGKAPKLMIYDVSKRPSGVPDRFSGSKSGNTASLTISGLQAEDEADYYCCSYEVFGGGTKLTVL
B25: G001_gp1_V10_VRC01c_2021-0125 (antibody, V domains shown)
VH: QVQLVQSGAEVKKPGASVKVSCKASGYTFTGYYIHWVRQAPGQGLEWMGWLNPNSGGTNYLQKFQDRVTMTRDTSIGTAYMELSTLRSDDTAVYYCARGNSGPWAWRYWGQGTLVTVSS
VL: B24 VL with R8A, V18I, Y34S, K55N, P61S, D62N, A82P, C91S
B26: G001_gp1_V10_VRC01c_2021-0117 (antibody, V domains shown)
VH: QVQLVQSGAEVKKPGASVKVSCKASGYTFTGYYMHWVRQAPGQGLEWMGWINPNSGGTNYAQKFQGWVTMTRDTSISTAYMEVSRLTSDDTAVYYCARGEDNWYSFNYWGQGTLVTVSS
VL: EIVMTQSPATLSVSPGERATLSCRASQSVSSKLAWYQQKPGQAPRLLIYGTSTRATGIPARFSGSGSGTEFTLTISSLQSEDFAVYYCQLYETFGQGTKVEIK
B27: G001_gp1_V10_VRC01c_2021-0120 (antibody, V domains shown)
VH: QVQLVQSGAEVKKPGASVKVSCKASGYTFSGYYMHWVRQAPGQGLEWMGWINPNSGGTNYAQRFQDWVTMTRDTSISTAYMELSRLRSDDTAVYYCARAEYSSAWCFDYWGQGTLVTVSS
VL: DIQMTQSPSSLSASVGDRVTITCQASQDSSKSLNWYQQKPGKAPKLLIYDVSNLETGVPSRFSGSGSGRDFTFTISSLQAEDTATYYCQQYDIFGPGTKVHIK

Each binder was assayed against eOD-GT8 (engineered outer domain germline-targeting version 8), monomer (HIV-1 gp120 engineered outer domain, …).
B1: binds.
B2: binds.
B3: binds.
B4: binds.
B5: binds.
B6: binds.
B7: binds.
B8: binds.
B9: binds.
B10: binds.
B11: binds.
B12: binds.
B13: binds.
B14: binds.
B15: binds.
B16: binds.
B17: binds.
B18: binds.
B19: binds.
B20: binds.
B21: binds.
B22: binds.
B23: binds.
B24: binds.
B25: binds.
B26: binds.
B27: binds.
